Here are results for five molecules from US20240382586A1 (TAKIS S R L, published 2024).

Substitutions are numbered along the chain they refer to.

B1: 9-8F2-B11 (mouse) (antibody, V domains shown)
VH: EVQLQQSGAELVKPGASVKLSCTASGFNIKETYVHWVKQRPEQGLEWIGRIDPAIGDSEYDPKFQGKATVTADTSSNTAYLQLSRLTSEDTAVYYCARTWGPFFDFWGQGTTLTVSS
VL: DVVMTQTPLSLPVSLGDQASISCRSSQSLVHSHGNTFLHWYLQKPGQSPKVLIYKVSSRFSGVPDRFSGSGAGTDFTLKISRVEAEDLGVYFCSQSTHVPYTFGGGTKLEIK
B2: 9-2H7-D7 (mouse) (antibody, V domains shown)
VH: EVQLQQSGPELVKPGASVTISCKTSGYTFTEYTMYWVKQSHGKSLEWIGGINPYIGDTSYNQNFKGKATLTVDKSSSTAYMELRSLTSEDSAVYYCARDGYPDYSAMDFWGQGTSVTVSS
VL: DIVMSQSPSSLAVSVGEKVTMNCKSSQNLLYSSNQKNYLAWYQQKPGQSPKLLIYWASTRESGVPDRFTGSGSGTDFTLTISSVKAEDLAVYSCQQYYTYPWTFGGGTKLEIK
B3: 9-7A4-C2 (mouse) (antibody, V domains shown)
VH: EVQLQQSGPELVKPGASVKISCKTSGYTFTEYTMYWVKQSHGKSLEWIGGINPNNGDSSYIQKFKGKATLTVDESSSTAYMELRSLTSEDSAVYYCARDGYPNSYAMDYWGQGTSVTVSS
VL: B2 VL with E17D, N22S, N28S, S33T, S82G, K85R, A86P, S93Y, T99S
B4: 9-2H7-D7 chimera (antibody, V domains shown)
VH: B2 VH
VL: B2 VL
B5: humanised 9-8F2-B11 (VH3VL3) (antibody, V domains shown)
VH: QVQLVQSGAEVKKPGASVKVSCKASGFNIKETYVHWVRQAPGQGLEWMGRIDPAIGDSEYAQKFQGRVTMTRDTSISTAYMELSRLRSDDTAVYYCARTWGPFFDFWGQGTLVTVSS
VL: DIVMTQTPLSLSVTPGQPASISCKSSQSLLHSHGNTFLHWYLQKPGQSPQVLIYKVSSRFSGVPDRFSGSGSGTDFTLKISRVEAEDVGVYYCSQSTHVPYTFGQGTKLEIK
notes: also called 9-8F2-B11 humanised

The target of the first test is SARS-CoV-2 spike, variant N501Y (B.1.1.7, British) (on virus or pseudovirus) (SARS-CoV-2, UniProt P0DTC2 14-1273). In words: cell-based or functional assay.
For the molecule B1, the “IC50 (ng/ml), pseudovirus neutralisation, British B1.1.7” value (“IC50 (ng/ml) … British B1.1.7” for short) came to 7.7 ng/mL.

Regarding B2, the “IC50 (ng/ml) … British B1.1.7” value was found to be 40 ng/mL.

For the molecule B3, the “IC50 (ng/ml) … British B1.1.7” value stood at 18 ng/mL.

On to B4, for which the “IC50 (ng/ml) … British B1.1.7” value amounted to 11 ng/mL.

Take B5: the “IC50 (ng/ml) … British B1.1.7” value came out at 11 ng/mL.

A further test has as its target SARS-CoV-2 spike, African variant B.1.351 (on pseudovirus) (SARS-CoV-2). Briefly: cell-based or functional assay.
For the molecule B3, the “IC50 (ng/ml), pseudovirus neutralisation, African B1.1.351” value (“IC50 (ng/ml) … African B1.1.351” below) was 20 ng/mL.

In the case of B4, the “IC50 (ng/ml) … African B1.1.351” value was 21 ng/mL.

Take B5: the “IC50 (ng/ml) … African B1.1.351” value stood at 12000 ng/mL.
